Test system: Escherichia coli TOP10
Experiment: shrunken log2 fold change of peptide-encoding DNA abundance (4.5 h post-induction vs induction); higher = less antimicrobial activity (less host growth inhibition)
Conditions: time post-induction: 4.5 h; library: site-saturation at positions 5, 18, 19, 20
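Note: peptides expressed intracellularly from a pBAD plasmid library in pooled LB shake-flask culture, induced with 0.3% L-arabinose, DNA abundance read by NGS, three biological replicates, DESeq2 with apeglm shrinkage.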

Row | Sequence | shrunken log2 fold change
1 | RRIRTRPPRLPRPRPRPRCFPRP | 0.204
2 | RRIRNRPPRLPRPRPRPCYAPRP | -0.424
3 | RRIRDRPPRLPRPRPRPLWIPRP | -0.421
4 | RRIRIRPPRLPRPRPRPGLEPRP | -0.0336
5 | RRIRNRPPRLPRPRPRPRIGPRP | 0.0705
6 | RRIRWRPPRLPRPRPRPHKCPRP | 0.188
7 | RRIRHRPPRLPRPRPRPKNMPRP | -0.231
8 | RRIRDRPPRLPRPRPRPRLCPRP | 0.265
9 | RRIRTRPPRLPRPRPRPGFFPRP | 0.147
10 | RRIRQRPPRLPRPRPRPIYSPRP | -0.1
11 | RRIRQRPPRLPRPRPRPTEMPRP | -0.149
12 | RRIRTRPPRLPRPRPRPIISPRP | -0.0891
13 | RRIRIRPPRLPRPRPRPFLFPRP | -0.586
14 | RRIRERPPRLPRPRPRPGFCPRP | -0.122
15 | RRIRHRPPRLPRPRPRPPEKPRP | -0.00804
16 | RRIRQRPPRLPRPRPRPAFWPRP | 0.382
17 | RRIRERPPRLPRPRPRPTRYPRP | -0.154
18 | RRIRFRPPRLPRPRPRPGMQPRP | 0.237
19 | RRIRCRPPRLPRPRPRPQVNPRP | -0.246
20 | RRIRNRPPRLPRPRPRPWYIPRP | 0.00246
21 | RRIRSRPPRLPRPRPRPTDHPRP | -0.339
22 | RRIRYRPPRLPRPRPRPFPYPRP | -0.0356
23 | RRIRKRPPRLPRPRPRPQQVPRP | -0.0532
24 | RRIRARPPRLPRPRPRPTCIPRP | 0.331
25 | RRIRCRPPRLPRPRPRPMNAPRP | -0.422

Row | Sequence | shrunken log2 fold change
26 | RRIRFRPPRLPRPRPRPLWAPRP | -0.151
27 | RRIRKRPPRLPRPRPRPHVCPRP | -0.00289
28 | RRIRTRPPRLPRPRPRPGISPRP | 0.0832
29 | RRIRARPPRLPRPRPRPFFMPRP | -0.0309
30 | RRIRKRPPRLPRPRPRPMSAPRP | 0.0584
31 | RRIRKRPPRLPRPRPRPPFSPRP | -0.227
32 | RRIRIRPPRLPRPRPRPMNGPRP | 0.00766
33 | RRIRKRPPRLPRPRPRPWGPPRP | -0.125
34 | RRIRMRPPRLPRPRPRPIRFPRP | -0.133
35 | RRIRDRPPRLPRPRPRPYLPPRP | 0.00286
36 | RRIRCRPPRLPRPRPRPGFKPRP | -0.226
37 | RRIRTRPPRLPRPRPRPIDAPRP | -0.0859
38 | RRIRNRPPRLPRPRPRPAEYPRP | 0.0714
39 | RRIRWRPPRLPRPRPRPMRQPRP | -0.0376
40 | RRIRARPPRLPRPRPRPNPPPRP | 0.458
41 | RRIRERPPRLPRPRPRPGMNPRP | -0.308
42 | RRIRPRPPRLPRPRPRPEVHPRP | 0.551
43 | RRIRRRPPRLPRPRPRPNFVPRP | -0.142
44 | RRIRTRPPRLPRPRPRPCNFPRP | -1.39
45 | RRIRGRPPRLPRPRPRPIPMPRP | 0.372
46 | RRIRCRPPRLPRPRPRPIVNPRP | -0.239
47 | RRIRYRPPRLPRPRPRPLGVPRP | -0.0163
48 | RRIRPRPPRLPRPRPRPPVTPRP | 0.147
49 | RRIRTRPPRLPRPRPRPGTRPRP | 0.2
50 | RRIRFRPPRLPRPRPRPDPKPRP | 0.117

Row | Sequence | shrunken log2 fold change
51 | RRIRNRPPRLPRPRPRPWLKPRP | -0.0113
52 | RRIRIRPPRLPRPRPRPSMEPRP | -0.343
53 | RRIRNRPPRLPRPRPRPEMWPRP | -0.0348
54 | RRIRWRPPRLPRPRPRPCASPRP | -0.0152
55 | RRIRVRPPRLPRPRPRPPMRPRP | 1.24
56 | RRIRSRPPRLPRPRPRPCGRPRP | -0.485
57 | RRIRGRPPRLPRPRPRPNMHPRP | 0.563
58 | RRIRQRPPRLPRPRPRPNEDPRP | 0.031
59 | RRIRWRPPRLPRPRPRPAMHPRP | 0.341
60 | RRIRVRPPRLPRPRPRPQYGPRP | -0.0699
61 | RRIRYRPPRLPRPRPRPYNSPRP | -0.102
62 | RRIRNRPPRLPRPRPRPGDRPRP | 0.0819
63 | RRIRRRPPRLPRPRPRPCIFPRP | -0.0526
64 | RRIRPRPPRLPRPRPRPNGWPRP | 0.296
65 | RRIRGRPPRLPRPRPRPKPYPRP | 0.332
66 | RRIRPRPPRLPRPRPRPVMPPRP | 0.188
67 | RRIRQRPPRLPRPRPRPMNQPRP | -0.437
68 | RRIRWRPPRLPRPRPRPPFQPRP | 0.248
69 | RRIRHRPPRLPRPRPRPQNAPRP | -0.135
70 | RRIRMRPPRLPRPRPRPFILPRP | -0.41
71 | RRIRARPPRLPRPRPRPSDKPRP | -0.197
72 | RRIRMRPPRLPRPRPRPRQCPRP | 0.594
73 | RRIRNRPPRLPRPRPRPLMAPRP | 0.176
74 | RRIRCRPPRLPRPRPRPQVKPRP | 0.0486
75 | RRIRTRPPRLPRPRPRPFCQPRP | 0.101

Row | Sequence | shrunken log2 fold change
76 | RRIRGRPPRLPRPRPRPWIRPRP | -0.164
77 | RRIRLRPPRLPRPRPRPYSPPRP | -0.299
78 | RRIRCRPPRLPRPRPRPPISPRP | -0.38
79 | RRIRHRPPRLPRPRPRPGIRPRP | -0.00441
80 | RRIRQRPPRLPRPRPRPRHYPRP | -0.191
81 | RRIRRRPPRLPRPRPRPAKNPRP | 0.279
82 | RRIRNRPPRLPRPRPRPVRWPRP | 0.703
83 | RRIRFRPPRLPRPRPRPKVSPRP | 0.00612
84 | RRIRWRPPRLPRPRPRPSAFPRP | 0.0981
85 | RRIRQRPPRLPRPRPRPTKRPRP | 0.254
86 | RRIRNRPPRLPRPRPRPQICPRP | -0.0199
87 | RRIRARPPRLPRPRPRPDPEPRP | 0.939
88 | RRIRLRPPRLPRPRPRPEESPRP | 0.012
89 | RRIRQRPPRLPRPRPRPAWIPRP | -0.0396
90 | RRIRRRPPRLPRPRPRPRQDPRP | 0.274
91 | RRIRCRPPRLPRPRPRPNGRPRP | 0.0604
92 | RRIRCRPPRLPRPRPRPMVPPRP | -0.354
93 | RRIRKRPPRLPRPRPRPMWDPRP | -0.0178
94 | RRIRWRPPRLPRPRPRPSLFPRP | 0.114
95 | RRIRWRPPRLPRPRPRPPKQPRP | 1.07
96 | RRIRHRPPRLPRPRPRPDQPPRP | 0.183
97 | RRIRVRPPRLPRPRPRPVESPRP | -0.0208
98 | RRIRGRPPRLPRPRPRPIMAPRP | 0.401
99 | RRIRQRPPRLPRPRPRPVHNPRP | -0.121
100 | RRIRWRPPRLPRPRPRPVQLPRP | 0.034

Row | Sequence | shrunken log2 fold change
101 | RRIRLRPPRLPRPRPRPYKRPRP | -0.0165
102 | RRIRFRPPRLPRPRPRPCIEPRP | -0.422
103 | RRIRARPPRLPRPRPRPENEPRP | 0.868
104 | RRIRARPPRLPRPRPRPKISPRP | 0.173
105 | RRIRGRPPRLPRPRPRPRWAPRP | 0.702
106 | RRIRQRPPRLPRPRPRPWRCPRP | -0.149
107 | RRIRVRPPRLPRPRPRPNEDPRP | -0.168
108 | RRIRFRPPRLPRPRPRPCVYPRP | -0.0699
109 | RRIRDRPPRLPRPRPRPHINPRP | -0.683
110 | RRIRDRPPRLPRPRPRPIKKPRP | 0.0559
111 | RRIRHRPPRLPRPRPRPNPIPRP | -0.023
112 | RRIRCRPPRLPRPRPRPWRGPRP | 0.185
113 | RRIRRRPPRLPRPRPRPYAPPRP | -0.0565
114 | RRIRERPPRLPRPRPRPMNSPRP | -0.0427
115 | RRIRKRPPRLPRPRPRPCPGPRP | -0.251
116 | RRIRWRPPRLPRPRPRPGVWPRP | 0.519
117 | RRIRQRPPRLPRPRPRPNEWPRP | -0.00822
118 | RRIRSRPPRLPRPRPRPCQDPRP | -0.0622
119 | RRIRPRPPRLPRPRPRPDGDPRP | 0.152
120 | RRIRTRPPRLPRPRPRPWADPRP | 0.015
121 | RRIRERPPRLPRPRPRPQAWPRP | 0.0278
122 | RRIRVRPPRLPRPRPRPNVWPRP | 0.0782
123 | RRIRHRPPRLPRPRPRPNARPRP | -0.0163
124 | RRIRNRPPRLPRPRPRPAWHPRP | 0.259
125 | RRIRTRPPRLPRPRPRPNCHPRP | -0.341

Source: the supplement of paper PMC9112550, “Optimization of the antimicrobial peptide Bac7 by deep mutational scanning” (BMC Biology, 2022)
